# Source: patent US20250263482A1 (SHIJIAZHUANG YILING PHARMACEUTICAL, published 2025)
# B1: YL-G1-19-02 (antibody, human IgG1, kappa)
# heavy: not shown
# light: DIVMTQSPSSLTVTAGEKVTMSCKSSQSLLNSGNQKNYLTWYQQRPGQPPKLLIYWASTRESGVPVRFTGSGSGTDFTLTISSVQAEDLAVYYCQNAYIYPLTFGTGTKLELKRTVAAPSVFIFPPSDEQLKSGTASVVCLLNNFYPREAKVQWKVDNALQSGNSQESVTEQDSKDSTYSLSSTLTLSKADYEKHKVYACEVTHQGLSSPVTKSFNRGEC
# notes: also called YL-G1-02; YL-G-19-02
# B2: YL-G1-19-01 (antibody, human IgG1, kappa, V domains shown)
# VH: QVQLQQSGAELVRPGTSVKVSCKASGYAFTNYLIEWVKQRPGQGLEWIGVINPGSGGTNYNEKFKGKATLTADKSSNTAYMQLSSLTSEDSAVYFCARVYYGNSFGYWGQGTLVTVSA
# VL: DIVMTQSPSSLTVTAGEKVTMSCKSSQSLLNSGNQKNYLTWYQQKPGQPPKLLIYWASTRESGVPDRFTGSGSGTDFTLTISSVQAEDLAVYYCQNEYFYPFTFGSGTKLEIKR
# notes: also called 1st generation chimeric antibody
# Molecular target: T1, human CLDN18.2 expressed on cells (human)
# T1 construct: Tight junction membrane protein; also called huCLDN18.2
# Test: flow cytometry (geometric mean) on CLDN18.2-expressing 293T cells, Alexa Fluor 647 anti-human IgG Fc secondary
# Method: CLDN18.2-expressing 293T cells and CLDN18.1-expressing 293T cells at a density of 2×10⁶ cells/ml in FACS buffer ([…]) were mixed with a dilution series ([…] in FACS buffer) of the chimeric antibodies, the reference antibody, or a IgG negative control (50 μL) in a 96-well V-bottom plate and incubated for 30 min on ice. After a wash with 200 μL/well FACS buffer, cells were resuspended in 30 μL/well secondary antibody Alexa Fluor® 647 AffiniPure Goat Anti-Human IgG, […] specific (Jackson, Cat. #109-605-098) and incubated for 20 min on ice. After three washes with 200 μL/well FACS buffer, cells were resuspended with 150 μl/well FACS buffer and subjected to FACS using BD LSR II Flow Cytometer (HTS). Geometric mean was used for data analysis and plots were made using Prism GraphPad.
row,Binder,EC50 (read off the curve) [µg/mL]
1,B1,~0.6
2,B2,~0.8
